# Laboratory results: the supplement of paper PMC10065799, “High-throughput profiling of sequence recognition by tyrosine kinases and SH2 domains using bacterial peptide display” (eLife, 2023)
# Biological target: FGFR3 (UniProt P22607)
# Assay: phosphorylation enrichment, bacterial display (enrichment ratio); higher = better substrate or ligand; peptides without Tyr show the background
# 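Further: 11-residue human phosphosite peptides and single-mutation variants displayed on the E. coli surface, counted by deep sequencing, each peptide's frequency after selection divided by its frequency in the unselected input library; frequency after pTyr selection over input frequency; kinase dosed for 20-30% of maximal phosphorylation in three min.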
# Sequence of FGFR3 (P22607 whole entry, looked up): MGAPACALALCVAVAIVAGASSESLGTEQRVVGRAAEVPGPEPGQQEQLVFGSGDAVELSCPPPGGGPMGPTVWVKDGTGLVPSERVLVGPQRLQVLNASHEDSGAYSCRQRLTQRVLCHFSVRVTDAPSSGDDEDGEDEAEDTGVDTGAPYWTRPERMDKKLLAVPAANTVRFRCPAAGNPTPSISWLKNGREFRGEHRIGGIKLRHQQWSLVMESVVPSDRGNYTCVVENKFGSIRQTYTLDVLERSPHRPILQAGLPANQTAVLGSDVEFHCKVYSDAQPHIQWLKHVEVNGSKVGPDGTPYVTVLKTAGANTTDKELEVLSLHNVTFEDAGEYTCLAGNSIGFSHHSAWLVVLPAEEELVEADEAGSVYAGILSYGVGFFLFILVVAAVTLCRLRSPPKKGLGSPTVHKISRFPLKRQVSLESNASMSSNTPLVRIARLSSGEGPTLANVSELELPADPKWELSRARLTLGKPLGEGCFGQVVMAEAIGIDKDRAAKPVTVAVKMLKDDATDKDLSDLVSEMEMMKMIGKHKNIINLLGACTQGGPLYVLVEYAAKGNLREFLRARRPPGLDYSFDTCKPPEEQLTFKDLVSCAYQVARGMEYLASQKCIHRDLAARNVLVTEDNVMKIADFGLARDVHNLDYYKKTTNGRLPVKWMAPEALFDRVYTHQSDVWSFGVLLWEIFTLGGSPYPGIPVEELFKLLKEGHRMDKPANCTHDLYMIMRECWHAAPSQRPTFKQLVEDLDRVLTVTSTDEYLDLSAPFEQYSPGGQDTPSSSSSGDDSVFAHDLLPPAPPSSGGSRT
row,Sequence,phosphorylation enrichment
1,LITTPYIGFLG [KCNQ1_Y267_L266P],0.641
2,RIPFRYPKEFQ [IDS_Y234_H229R],1.07
3,LEIETDRRLLD [KRT12_Y429_Y429D],1.4
4,MLEVSYVDRNS [F10_Y384_P383S],0.519
5,GTHCHYKAPTV [FZD9_Y569],0.51
6,PEVRRYVLPLN [RPE65_Y368],1.3
7,SSFPDYLAAVD [GLB1_Y154_D151Y_YF],0.761
8,YCRHNYGVVES [HLA-DRB1_Y112],0.527
9,LGKLTYPVGFW [NTHL1_Y177_I176T],1.48
10,LIDSSYLTRTA [GREB1L_Y1063],0.44
11,QQLDKYQELLD [LMNA_Y359_E358K],0.783
12,QMWLKYSQSDL [SMC1A_Y714_R711W],1.08
13,SNNFIYTTLGV [FAM83B_Y639_K640T_YF],1.16
14,FDDIACIRKTL [PIK3CA_Y1021_Y1021C],0.756
15,CQASLYPSNHD [LRIG1_Y996_G993A],0.792
16,SVVVPYEPTEV [TP53_Y220_P223T],0.742
17,IRTIDYRYTVS [IDS_Y497_W502S],0.601

row,Sequence,phosphorylation enrichment
1,HNLDFYKETTN [FGFR3_Y648_K650E_YF],0.915
2,GGFNNYGFGSD [HNRNPH3_Y159_N163S_YF],0.533
3,MEIHAYLKLLE [LMNA_Y376_R377L],0.959
4,NRLTDYYEPLL [BBS10_Y536],7.93
5,AGVDRYSLGTS [C5orf42_Y1451_P1446A],0.51
6,TRDTDYQMTKR [ADA_Y308_L304R],0.7
7,FADIAYNFRQG [PAH_Y166_H170Q_YF],0.601
8,RDSQIYAVDFE [MRPS34_Y34_L33I_YF],0.656
9,EREFKYGAHNF [OAT_Y50_YF],0.482
10,QRKPSYNQLPS [BRCA2_Y71_A75P],0.598
11,RNVLVYDKLNV [ROR2_Y624],0.787
12,SAVVPYEPPEV [TP53_Y220_V216A],0.761
13,LITTLYIGFLD [KCNQ1_Y267_G272D],1.35
14,NGSFRYVIISQ [LRP1B_Y1988],0.71
15,IPGRYYETGSI [PAX2_Y73_L69P],0.498
16,GRERPYGGGGG [FUS_Y526_R521G],0.487

# System: Fer (mouse)
# Assay: as above
row,Sequence,phosphorylation enrichment
1,LITTPYIGFLG [KCNQ1_Y267_L266P],0.667
2,RIPFRYPKEFQ [IDS_Y234_H229R],0.627
3,LEIETDRRLLD [KRT12_Y429_Y429D],1.06
4,MLEVSYVDRNS [F10_Y384_P383S],0.439
5,GTHCHYKAPTV [FZD9_Y569],0.505
6,PEVRRYVLPLN [RPE65_Y368],0.893
7,SSFPDYLAAVD [GLB1_Y154_D151Y_YF],0.66
8,YCRHNYGVVES [HLA-DRB1_Y112],0.41
9,LGKLTYPVGFW [NTHL1_Y177_I176T],1.32
10,LIDSSYLTRTA [GREB1L_Y1063],0.905
11,QQLDKYQELLD [LMNA_Y359_E358K],0.452
12,QMWLKYSQSDL [SMC1A_Y714_R711W],0.512
13,SNNFIYTTLGV [FAM83B_Y639_K640T_YF],2.67
14,FDDIACIRKTL [PIK3CA_Y1021_Y1021C],0.424
15,CQASLYPSNHD [LRIG1_Y996_G993A],0.524
16,SVVVPYEPTEV [TP53_Y220_P223T],0.709
17,IRTIDYRYTVS [IDS_Y497_W502S],0.45

row,Sequence,phosphorylation enrichment
1,HNLDFYKETTN [FGFR3_Y648_K650E_YF],0.656
2,GGFNNYGFGSD [HNRNPH3_Y159_N163S_YF],0.39
3,MEIHAYLKLLE [LMNA_Y376_R377L],0.587
4,NRLTDYYEPLL [BBS10_Y536],2.11
5,AGVDRYSLGTS [C5orf42_Y1451_P1446A],0.398
6,TRDTDYQMTKR [ADA_Y308_L304R],0.359
7,FADIAYNFRQG [PAH_Y166_H170Q_YF],0.35
8,RDSQIYAVDFE [MRPS34_Y34_L33I_YF],0.717
9,EREFKYGAHNF [OAT_Y50_YF],0.36
10,QRKPSYNQLPS [BRCA2_Y71_A75P],0.536
11,RNVLVYDKLNV [ROR2_Y624],3.9
12,SAVVPYEPPEV [TP53_Y220_V216A],0.479
13,LITTLYIGFLD [KCNQ1_Y267_G272D],1.78
14,NGSFRYVIISQ [LRP1B_Y1988],0.513
15,IPGRYYETGSI [PAX2_Y73_L69P],0.331
16,GRERPYGGGGG [FUS_Y526_R521G],0.6

# Biological target: Fes (UniProt P07332)
# Sequence (P07332 whole entry, looked up): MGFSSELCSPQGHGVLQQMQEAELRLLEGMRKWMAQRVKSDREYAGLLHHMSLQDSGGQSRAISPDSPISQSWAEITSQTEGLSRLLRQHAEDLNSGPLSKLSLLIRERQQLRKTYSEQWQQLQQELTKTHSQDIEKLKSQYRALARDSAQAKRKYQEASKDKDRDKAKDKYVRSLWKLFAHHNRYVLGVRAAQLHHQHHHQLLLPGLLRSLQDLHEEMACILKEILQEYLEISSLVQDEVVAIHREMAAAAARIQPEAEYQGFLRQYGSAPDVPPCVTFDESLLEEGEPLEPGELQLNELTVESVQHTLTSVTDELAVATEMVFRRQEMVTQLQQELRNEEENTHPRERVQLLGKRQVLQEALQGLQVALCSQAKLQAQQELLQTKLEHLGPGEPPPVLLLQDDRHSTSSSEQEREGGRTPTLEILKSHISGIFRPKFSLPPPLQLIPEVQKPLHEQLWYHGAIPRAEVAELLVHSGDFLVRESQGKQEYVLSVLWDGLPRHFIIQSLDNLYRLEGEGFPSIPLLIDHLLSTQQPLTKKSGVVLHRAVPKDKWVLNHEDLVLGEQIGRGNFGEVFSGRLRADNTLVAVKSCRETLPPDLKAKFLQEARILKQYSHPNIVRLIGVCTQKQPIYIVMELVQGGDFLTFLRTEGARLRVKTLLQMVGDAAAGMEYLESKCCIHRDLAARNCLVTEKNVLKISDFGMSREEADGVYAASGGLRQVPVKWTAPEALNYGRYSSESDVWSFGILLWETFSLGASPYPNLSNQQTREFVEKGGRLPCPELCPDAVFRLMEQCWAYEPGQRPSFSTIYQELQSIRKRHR
# Assay: as above
row,Sequence,phosphorylation enrichment
1,LITTPYIGFLG [KCNQ1_Y267_L266P],1.35
2,RIPFRYPKEFQ [IDS_Y234_H229R],1.14
3,LEIETDRRLLD [KRT12_Y429_Y429D],3.18
4,MLEVSYVDRNS [F10_Y384_P383S],0.758
5,GTHCHYKAPTV [FZD9_Y569],0.79
6,PEVRRYVLPLN [RPE65_Y368],1.45
7,SSFPDYLAAVD [GLB1_Y154_D151Y_YF],1.09
8,YCRHNYGVVES [HLA-DRB1_Y112],0.798
9,LGKLTYPVGFW [NTHL1_Y177_I176T],2.06
10,LIDSSYLTRTA [GREB1L_Y1063],0.668
11,QQLDKYQELLD [LMNA_Y359_E358K],0.995
12,QMWLKYSQSDL [SMC1A_Y714_R711W],1.8
13,SNNFIYTTLGV [FAM83B_Y639_K640T_YF],0.885
14,FDDIACIRKTL [PIK3CA_Y1021_Y1021C],1.03
15,CQASLYPSNHD [LRIG1_Y996_G993A],1.3
16,SVVVPYEPTEV [TP53_Y220_P223T],1.33
17,IRTIDYRYTVS [IDS_Y497_W502S],1.13

row,Sequence,phosphorylation enrichment
1,HNLDFYKETTN [FGFR3_Y648_K650E_YF],1.5
2,GGFNNYGFGSD [HNRNPH3_Y159_N163S_YF],0.762
3,MEIHAYLKLLE [LMNA_Y376_R377L],1.8
4,NRLTDYYEPLL [BBS10_Y536],0.826
5,AGVDRYSLGTS [C5orf42_Y1451_P1446A],0.599
6,TRDTDYQMTKR [ADA_Y308_L304R],0.646
7,FADIAYNFRQG [PAH_Y166_H170Q_YF],0.86
8,RDSQIYAVDFE [MRPS34_Y34_L33I_YF],1.22
9,EREFKYGAHNF [OAT_Y50_YF],0.608
10,QRKPSYNQLPS [BRCA2_Y71_A75P],0.767
11,RNVLVYDKLNV [ROR2_Y624],0.64
12,SAVVPYEPPEV [TP53_Y220_V216A],1.21
13,LITTLYIGFLD [KCNQ1_Y267_G272D],3.12
14,NGSFRYVIISQ [LRP1B_Y1988],1.25
15,IPGRYYETGSI [PAX2_Y73_L69P],0.646
16,GRERPYGGGGG [FUS_Y526_R521G],0.565

# Biological target: Fyn (UniProt P06241)
# Sequence (P06241 whole entry, looked up): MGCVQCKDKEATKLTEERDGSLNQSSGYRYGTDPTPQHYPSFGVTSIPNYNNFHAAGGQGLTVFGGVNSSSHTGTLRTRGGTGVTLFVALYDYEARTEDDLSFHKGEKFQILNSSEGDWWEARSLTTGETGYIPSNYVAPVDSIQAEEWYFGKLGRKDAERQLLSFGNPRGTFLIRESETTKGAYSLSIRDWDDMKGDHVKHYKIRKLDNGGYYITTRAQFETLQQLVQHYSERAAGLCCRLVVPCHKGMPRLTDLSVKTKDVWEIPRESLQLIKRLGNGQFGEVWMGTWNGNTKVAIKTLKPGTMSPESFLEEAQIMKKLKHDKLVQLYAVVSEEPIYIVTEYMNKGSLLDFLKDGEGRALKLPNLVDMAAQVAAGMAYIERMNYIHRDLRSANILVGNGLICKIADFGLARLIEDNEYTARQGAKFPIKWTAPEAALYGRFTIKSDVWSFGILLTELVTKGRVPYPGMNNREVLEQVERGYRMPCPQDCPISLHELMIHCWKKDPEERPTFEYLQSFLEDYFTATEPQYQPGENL
# Assay: as above
row,Sequence,phosphorylation enrichment
1,LITTPYIGFLG [KCNQ1_Y267_L266P],0.782
2,RIPFRYPKEFQ [IDS_Y234_H229R],0.56
3,LEIETDRRLLD [KRT12_Y429_Y429D],1.29
4,MLEVSYVDRNS [F10_Y384_P383S],0.375
5,GTHCHYKAPTV [FZD9_Y569],0.442
6,PEVRRYVLPLN [RPE65_Y368],0.597
7,SSFPDYLAAVD [GLB1_Y154_D151Y_YF],0.586
8,YCRHNYGVVES [HLA-DRB1_Y112],0.385
9,LGKLTYPVGFW [NTHL1_Y177_I176T],1.14
10,LIDSSYLTRTA [GREB1L_Y1063],0.571
11,QQLDKYQELLD [LMNA_Y359_E358K],0.485
12,QMWLKYSQSDL [SMC1A_Y714_R711W],0.485
13,SNNFIYTTLGV [FAM83B_Y639_K640T_YF],7.76
14,FDDIACIRKTL [PIK3CA_Y1021_Y1021C],0.374
15,CQASLYPSNHD [LRIG1_Y996_G993A],0.571
16,SVVVPYEPTEV [TP53_Y220_P223T],0.522
17,IRTIDYRYTVS [IDS_Y497_W502S],0.558

row,Sequence,phosphorylation enrichment
1,HNLDFYKETTN [FGFR3_Y648_K650E_YF],0.731
2,GGFNNYGFGSD [HNRNPH3_Y159_N163S_YF],0.458
3,MEIHAYLKLLE [LMNA_Y376_R377L],0.521
4,NRLTDYYEPLL [BBS10_Y536],1.03
5,AGVDRYSLGTS [C5orf42_Y1451_P1446A],0.361
6,TRDTDYQMTKR [ADA_Y308_L304R],0.377
7,FADIAYNFRQG [PAH_Y166_H170Q_YF],0.425
8,RDSQIYAVDFE [MRPS34_Y34_L33I_YF],6.32
9,EREFKYGAHNF [OAT_Y50_YF],0.442
10,QRKPSYNQLPS [BRCA2_Y71_A75P],0.599
11,RNVLVYDKLNV [ROR2_Y624],5.08
12,SAVVPYEPPEV [TP53_Y220_V216A],0.556
13,LITTLYIGFLD [KCNQ1_Y267_G272D],2.56
14,NGSFRYVIISQ [LRP1B_Y1988],0.528
15,IPGRYYETGSI [PAX2_Y73_L69P],0.454
16,GRERPYGGGGG [FUS_Y526_R521G],0.357
